According to US20240368239A1, “Novel bispecific protein and use thereof” (SL METAGEN, priority 2020, published 2024):
“Also recorded” adds a separate entry of the source. Like-named read-outs stand apart in the source and are kept apart here.

T1: GLP-2 receptor (Homo sapiens, UniProt O95838)
T1 sequence (O95838 1-553): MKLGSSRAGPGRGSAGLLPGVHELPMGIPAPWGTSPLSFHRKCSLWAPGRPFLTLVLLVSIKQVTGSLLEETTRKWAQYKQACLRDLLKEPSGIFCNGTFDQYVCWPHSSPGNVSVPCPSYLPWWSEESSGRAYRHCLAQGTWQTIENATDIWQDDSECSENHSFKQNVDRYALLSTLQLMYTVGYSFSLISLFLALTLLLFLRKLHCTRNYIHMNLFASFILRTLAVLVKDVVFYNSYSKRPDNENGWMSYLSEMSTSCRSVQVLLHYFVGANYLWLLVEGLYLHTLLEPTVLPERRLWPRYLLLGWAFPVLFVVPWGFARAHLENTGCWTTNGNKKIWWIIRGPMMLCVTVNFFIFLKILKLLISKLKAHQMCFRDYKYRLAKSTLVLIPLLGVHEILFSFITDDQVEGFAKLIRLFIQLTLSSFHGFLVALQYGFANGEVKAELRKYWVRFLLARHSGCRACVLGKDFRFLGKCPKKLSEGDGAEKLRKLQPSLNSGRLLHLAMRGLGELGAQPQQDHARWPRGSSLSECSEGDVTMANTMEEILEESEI


What was measured:
[1] = In vivo pharmacokinetics profile after subcutaneous administration (GLP-1-Fc ELISA and GLP-2-Fc ELISA); set-up: species or system male SD (Sprague Dawley) rats; conditions: GLP-1-Fc ELISA
Procedure: First, each protein was administered to 3 male SD (Sprague Dawley) rats per group at a dose of 1 mg/kg by subcutaneous (SC) route. Before injection and after 0.5, 1, 5, 10, 24, 48, 72, 120, and 168 hours after the injection, blood was collected and stored at room temperature for 30 minutes to aggregate. After centrifuging the aggregated blood at 3,000 rpm for 10 minutes, serum of each sample was collected and stored in a cryogenic freezer. Analyses were performed by an assay designed to specifically detect the GLP-1 site and Fc in the administered protein (GLP-1-Fc ELISA) and an assay designed to specifically detect the GLP-2 site and Fc in the administered protein (GLP-2-Fc ELISA). Specifically, a method of loading a biological sample on a plate coated with an antibody that binds to mouse-derived human immunoglobulin G4 (IgG4) to detect the target protein using a biotinylated anti-GLP-1 antibody (GLP-1-Fc ELISA), and a method of loading a biological sample on a plate coated with a monoclonal antibody that specifically reacts with GLP-2, to detect the target protein using a secondary antibody having HRP conjugated to mouse-derived human immunoglobulin G4 (IgG4) (GLP-2-Fc ELISA) were used. The obtained and prepared serum samples were loaded with appropriate dilutions to be analyzed at a position on a straight line of the standard curve.

[2] = tested on: B6 normal mice; test: Small intestine weight and body weight (GLP-1-Fc homodimer, GLP-2-Fc homodimer, MG12-1, MG12-4); type: in vivo; conditions: SC twice a week, 4 doses; homodimers 10 nmol/kg, MG12 20 nmol/kg
Source text: In addition, the present inventors conducted the same experiment as above while only varying the administered substance, in order to confirm whether the bispecific fusion proteins (MG12-1 and MG12-4) designed in a form other than MG12-5 also increase the small intestine weight and energy absorption rate of experimental animals. Specifically, PBS, 10 nmol/kg GLP-1-Fc homodimer, 10 nmol/kg GLP-2-Fc homodimer, 20 nmol/kg MG12-1, and 20 nmol/kg MG12-4 were subcutaneously administered. The drug was administered twice a week for a total of 4 times for 2 weeks. After 4 doses, the body weight was measured before autopsy, and the small intestine was excised after the autopsy and weighed. After the autopsy, the entire gastrointestinal tract of the mouse was separated, the mesentery and the pancreas were excised, and the area where the ileum and the cecum meet was cut to separate the small intestine and the large intestine. The separated small intestine was perfused and washed with 10% neutral formalin to remove the contents, and was weighed after removing the neutral formalin with an absorbent towel.

[3] = tested on: B6 normal mice; test: MG12 vs. GLP-1 and GLP-2 combo: body weight and small intestine changes; type: in vivo; conditions: 12 days SC, normalized to cumulative feed intake
Procedure: In particular, in order to observe changes in body weight and the small intestine following the substance administration, an experiment was conducted in B6 normal mice. […] After starting drug administration twice a week during the test period, feed intake was measured and expressed as cumulative feed intake, and pre-autopsy body weight was measured to calculate the body weight vs. feed intake. After the autopsy, the weight of the small intestine, and mucosal depth and villus height of the duodenum and the jejunum were measured. More specifically, after the autopsy, the entire gastrointestinal tract of the mouse was separated, the mesentery and the pancreas were excised, and the area where the ileum and the cecum meet was cut to separate the small intestine and the large intestine.

[4] = tested on: Balb/c-nude mice; test: PET-MRI tissue distribution of Zr89-labelled proteins; type: in vivo; conditions: Zr89 label, SC
Source text: Next, the present inventors performed an experiment in Balb/c-nude mice in order to observe the distribution in each tissue organ following the administration of a substance. Zr^89 was used as a radiotracer for tracking the distribution after administration of each substance. Each substance to be administered was labeled with Zr^89 as a reaction condition and a chelator selected through a preliminary test. The labeled Zr^89-protein was purified using a PD-10 column, and Zr^89 labeling efficiency and purity were confirmed using Radio TLC and SEC-HPLC. The labeling efficiency of the Zr^89-protein of 90% or more and the purity of 80% or more were determined to be appropriate, and the labeled protein was administered subcutaneously at 0.2 mCi/0.2 cc. Each administration substance was administered to three animals and static images for 20 minutes were obtained using PET-MRI at 1 hour, 6 hours, 24 hours, 48 hours, and 168 hours after injection. Through image analysis, the distribution of drugs as a function of time in the liver, small intestine, and large intestine was expressed as SUV (Standardized Uptake Value) and comparatively analyzed.

[5] = tested on: B6 normal mice; test: Fluorescence spectrometry tissue distribution of Cy5.5-labelled substances; type: in vivo
Procedure: Next, the present inventors performed an experiment in B6 normal mice in order to observe the distribution in each tissue and organ according to the administration of a bispecific fusion protein according to an embodiment of the present invention. Cy5.5 was used as a fluorophore for tracking the distribution after administration of each substance. Buffer exchange was performed for each substance to be administered, MG12-1, MG12-4, and GLP-1Fc homodimer with boric acid buffer (pH 8.5), and with reference to the protocol of the Cy5.5 labeling kit (GE, #PA15605) were allowed to react with an appropriate amount of Cy5.5 overnight under refrigeration conditions. Unreacted Cy5.5 in the reaction-completed substance was removed through the PBS substitution process, and whether Cy5.5 was reacted well was confirmed through the final SDS-PAGE. Each administered substance was diluted with 10% DMSO/PBS to have the same fluorescence intensity using an ELISA plate reader capable of measuring fluorescence intensity before being administered.

[6] = molecular target: T1, GLP-2 receptor; test: GLP-2 in vitro activity, cAMP/CNG channel membrane potential fluorescence assay (Human GLP2R ACTOne cell line)
Procedure: Specifically, in order to evaluate the degree of CAMP induction by the GLP-2 specific reaction, a transformed cell line (Human GLP2R ACTOne™), having GLP-2 receptor expressed in a cell line expressing CNG channels that open in a CAMP-specific manner, was procured. […] The washed cells were diluted with a cell culture medium (DMEM/high glucose medium, supplemented with 10% FBS, 5% G418, 0.01% puromycin) and seeded at 3˜5×10^4 cells/100 μL/well, and were incubated in an incubator for about 20 hours at 37° C., 5% CO2. After removing the plate from the CO2 incubator, the cells were observed under a microscope, and when the cell confluence reached 80% or more, 1× dye-loaded solution (Elite™ fluorescent membrane potential dye kit, eEnzyme) was added at 100 μL/well. While blocking the light at room temperature, the reaction was carried out for 2 to 2.5 hours, and before adding the test solutions, the fluorescence baseline (F0) was measured using ELISA. Thereafter, the test solutions of various concentrations to be evaluated were treated at 50 μL/well, reacted for 0.5 hours, and then were measured for fluorescence value (Ft) using ELISA. The reactivity of each test solution was evaluated using the Ft/F0 ratio.

[7] = 24 hours after administration, Cy5.5 label

GLP-2 activity lower than that of other variants [6] | EC50 ([6]; Table 3, GLP-2 activity) | EC50 ([6]; read-out: EC50, GLP-2 activity, Table 4 experiment) | Molecule | terminal half-life, rank among MG12-1, 3, 4 and 5 [1] | small intestine weight [2] | weight change before autopsy (body weight) [2] | body weight increase vs. feed intake [3] | distribution to the liver (SUV) [4] | distribution to the small intestine and large intestine (SUV) [4] | Average fluorescence intensity, Brain [5, 7] | Average fluorescence intensity, Large intestine [5, 7] | Average fluorescence intensity, Small intestine [5, 7] | distribution in the small intestine and the large intestine ([5]; compared to GLP-1-Fc homodimer) | relative activity (%), GLP-2 activity ([6]; compared to GLP-2-Fc homodimer) | SUV (Standardized Uptake Value) in liver, small intestine and large intestine ([4]; 1-168 hours)
 |  |  | MG12-4: Knob/hole Fc heterodimer: GLP-1/Exendin 4 hybrid (SEQ 5), glycan linker, first fusion protein SEQ 27; GLP-2 (SEQ 17), second fusion protein SEQ 34 (protein) chain 1: HGEGTFTSDVSSYLEGQAAKEFIAWLVKGGPSSGAPPPSGGGGGSGGGGSGGGGSAKNTTAPATTRNTTRGGEEKKKEKEKEEQEERTHTCPPCPSHTQPLGVFLFPPKPKDQLMISRTPEVTCVVVDVSQEDPEVQFNWYVDGVEVHNAKTKPREEQFNSTYRVVSVLTVLHQDWLNGKEYKCKVSNKGLPSSIEKTISKAKGQPREPQVYTLPPCQEEMTKNQVSLWCLVKGFYPSDIAVEWESNGQPENNYKTTPPVLDSDGSFFLYSRLTVDKSRWQEGNVFSCSVLHEALHNHYTQKSLSLSLGK chain 2: HGDGSFSDEMNTILDNLAARDFINWLIQTKITDGGGGSGGGGSGGGGSEKEKEEQEERTHTCPPCPSHTQPLGVFLFPPKPKDQLMISRTPEVTCVVVDVSQEDPEVQFNWYVDGVEVHNAKTKPREEQFNSTYRVVSVLTVLHQDWLNGKEYKCKVSNKGLPSSIEKTISKAKGQPREPQVCTLPPSQEEMTKNQVSLSCAVKGFYPSDIAVEWESNGQPENNYKTTPPVLDSDGSFFLVSRLTVDKSRWQEGNVFSCSVLHEALHNHYTQKSLSLSLGK | shortest half-life | greater increase in small intestine weight than the GLP-2-Fc homodimer administered group; also recorded: superior effect of increasing small intestine weight | numerical increase in body weight | statistically significant body weight increase compared to the co-administered group | reduced or showed no difference compared to Fc | significantly high compared to that of GLP-1-Fc homodimer and GLP-2-Fc homodimer | 297 | 2343 | 4302 | larger |  | 
4-5 times |  |  | MG12-2: Knob/hole Fc heterodimer: GLP-2 (SEQ 17), glycan linker, second fusion protein SEQ 33; GLP-1 (SEQ 1), first fusion protein SEQ 25 (protein) chain 1: HGDGSFSDEMNTILDNLAARDFINWLIQTKITDGGGGSGGGGSGGGGSAKNTTAPATTRNTTRGGEEKKKEKEKEEQEERTHTCPPCPSHTQPLGVFLFPPKPKDTLMISRTPEVTCVVVDVSQEDPEVQFNWYVDGVEVHNAKTKPREEQFNSTYRVVSVLTVLHQDWLNGKEYKCKVSNKGLPSSIEKTISKAKGQPREPQVYTLPPCQEEMTKNQVSLWCLVKGFYPSDIAVEWESNGQPENNYKTTPPVLDSDGSFFLYSRLTVDKSRWQEGNVFSCSVMHEALHNHYTQKSLSLSLGK chain 2: HGEGTFTSDVSSYLEGQAAKEFIAWLVKGRGGGGGSGGGGSGGGGSEKEKEEQEERTHTCPPCPSHTQPLGVFLFPPKPKDTLMISRTPEVTCVVVDVSQEDPEVQFNWYVDGVEVHNAKTKPREEQFNSTYRVVSVLTVLHQDWLNGKEYKCKVSNKGLPSSIEKTISKAKGQPREPQVCTLPPSQEEMTKNQVSLSCAVKGFYPSDIAVEWESNGQPENNYKTTPPVLDSDGSFFLVSRLTVDKSRWQEGNVFSCSVMHEALHNHYTQKSLSLSLGK |  |  |  |  |  |  |  |  |  |  |  | 
 | 0.44 nM | 7.7 nM | GLP-2-Fc homodimer: GLP-2 homodimer fused with Fc not containing the Knobs-into-Holes (KiH) structure (protein, first fusion protein of bispecific fusion protein containing GLP-1 analogue, GLP-2 homodimer fused with Fc not containing the Knobs-into-Holes (KiH) structure) HGEGTFTSDVSSYLEGQAAKEFIAWLVKGRGGGGGSGGGGSGGGGSEKEKEEQEERTHTCPPCPSHTQPLGVFLFPPKPKDTLMISRTPEVTCVVVDVSQEDPEVQFNWYVDGVEVHNAKTKPREEQFNSTYRVVSVLTVLHQDWLNGKEYKCKVSNKGLPSSIEKTISKAKGQPREPQVCTLPPSQEEMTKNQVSLSCAVKGFYPSDIAVEWESNGQPENNYKTTPPVLDSDGSFFLVSRLTVDKSRWQEGNVFSCSVMHEALHNHYTQKSLSLSLGK |  | statistically significant increase | no change |  |  |  |  |  |  |  | 100% | SUV values were increased compared to Fc in all of the three organs
